In the DeepSol protein solubility set:

assay: soluble on expression in E. coli; label from the status in PepcDB or PDB records

Row | Sequence | soluble on expression in E. coli
1 | MTTAAEIITVEKLNDFDYKVALQQQMVAAQNGAAAAVLRPHQIGSSPEAPQSQTSGGSTEQLQQQPLPPPTQQKQQQPLTIGPVAPNDRSTSSSSTDGPRRLHVSNIPFKYREPDLTAMFEKVGPVVDVEIIFNERGSKGFGFVTMQNPDDADRARAEFNGTTIEGRRVEVNLATQRVHNKKAKPLMSVGVDAMSAQNALISQQQQIQRAALLQQQLLAQQFLVPRHQQLMMPPTSAAAISQLQALQYQQALLAAQQQQQQMQNPQFLLSLQQQQQAQAQAPPTSMAQLIQHQQQFAMDPMAQAQAQAAQAQMVTLIAFEQQRMQLQAAAAAAQGRGVPQPGRIPTSTATTGSSQNQVAAGSIGEQYLQQSMQGAVPANFHHHSQALHPAAAAAAALQRRFAPY | not soluble
2 | MGSDKIHHHHHHANNDEWVTCPPGGILAIGTMKIPNADTPRDFFIALDNGDNVLPADTADIRNRKYTVAEGQRVFVGYLQMGKEKPGYENGKIFTIEDILTKEIIPLTEATADSIGDDRINVTAHALTKDYLTIEYQYLGSMNENKKHMLNLVQNEITGPIKDDGYIYLEFRHNAFNDSPNQLGSSLVSFKLDSIAEQLATAKGIKLRVNTIYDNIQYVTIDINEDKNLKIKSFHSQ | not soluble
3 | MNRQIPKVPDAIELEYDLDEPPQKVWRAISIPAFREHWLPKEALAQPEAIKVSPGREVCYRLREDTPPFLESTVTFQIASNDRGGTSLRIIHDLPAIKSGRMTKAAANHNGSPIKLAALEHHHHHH | not soluble
4 | SVRVMQLTLGNSTITTQEAANSVVAYGRWPEYIKDSEANPVDQPTEPDVAACRFYTLDTVTWRKESRGWWWKLPDALKDMGLFGQNMFYHYLGRAGYTVHVQCNASKFHQGALGVFAVPEMCLAGDSTTHMFTKYENANPGEKGGEFKGSFTLDTNATNPARNFCPVDYLFGSGVLAGNAFVYPHQIINLRTNNCATLVLPYVNSLSIDSMTKHNNWGIAILPLAPLDFATESSTEIPITLTIAPMCCEFNGLRNITVPRTQ | soluble
5 | AIAEAEGMLPPQSLSAKFEGSFAYLTVRDRLPTILTKVVDTLHRNKDNFYKEYGEEGTEAEKRAISFLSRLRNELQTDKPVLALTDNAEDTQAWNEYMERQQDLMENGQLVSWFKSPWLYVECYMYRRIQEALYMNPPMHNFDPFKEGKTQSYFESQQAIKYLCTYLQELITNMENMTEIQLRENFLKLIQVSLWGNKCDLSISAGQDNSQKLSPIDSLPDLQRFILVDDSSMVWSTLVASQGSRSSGMKHARVDIILDNAGFELVTDLVLADFLISSGLAKQIRFHGKSIPWFVSDVTKQDFEWTIKQTMAANHKWMSASGVQWKHFMKEGTWSYHDHPFWTLPHEFCDMTVDAANLYSTLQTSDLILFKGDLNYRKLTGDRKWEHTVRFDQALRGFQPAPLCSLRTLKADVQVGLQAGHAEKLSTQDPDWMTNGKYAVVQFSSPHREQ | soluble
6 | MRGCNKETGEFLGPSRSQQRRTALEVLVLSEKLAALTPAQLAKLPIPERLLPHITETKRITSHIARKRQLAFLAKQMRREDDTTLEAIREKLNASGIQAQREVATLHRTEQWRKRLLEEGDSALTELLNQYPQADCGKLRQLLRNSKTEQARNKAPQAFRELYQVLHGLIITQ | not soluble
7 | MVLWVFGYGSLIWNPGFDFDEKLIGYIKDYKRVFDLACIDHRGTPEHPARTCTLEQSTGAICWGAAYCVRGGPEKEKLAMEYLERRECEYDSKTLVEFYTENDTSTPIVTGVIVFTSTPDKVSNKYYLGPAPLEEMARQIATASGPCGNNREYLFKLEKAMFDIEHEEEYVIELANEVRKQLDLPEEVKALLKPIVSHVSVKSQAHVSTRQRVFAS | soluble
8 | MSLIKITIGICEYPSVLKSAVYGFEEMFLLANRICKEQNIEVVFEPILIPHTGLTAERLTVVLLPPASLDNYYLAPDDALIRWLKAHYSQGTVLSSACAGVFILAATNLIDSREVTTHWALAETFSQAFPSIALDSNKILINHGDIVTAGGMMSWLDLGFELIAKYASPGVVRQLGKTLVIDTAQRAQSYYQQFHPSFSHGDYAIVSIQQIMHQRYAEPLSIKQLAKQANLTERTMQRRFLKATGYNPNQYLQRLRIQSACHLLESTQHSFDSISHQVGYEDTSACRKVFINVIGLTPREFRKRFAEGHHHHHH | soluble
9 | GPGSMSHNVRPSRYAVSQSKARIFVGQLEPYVTEQDLYPVFSCYGKILHLNIVRHSTTVTPNEERRIPTAFVWYETTTEADAAIAALHNVFTFSSPDEEENKVRYIQVSYADKSPECTPWGRWQKTQAEIMRRTNPSGTGTGSNMPGQYSHITGGGPSTYSSSALNNDGGFTVSATGPAIRSSQSSGDISSMRYPRNPARGLRSMAPHIDHPEVQYYSSYDNLYNLGNRNQLYSMGGAANSMMGYTKHRGMPPHESTSSGDLGRGSTSSFWNMSEEVKKNTAANPNRFRHTARYTAPEPDEDLIMAAPTFTVTSGP | not soluble
10 | MCSVKPKYISLPEQNSLCSLPNSGCCQVEVKIGRSKWEQQKAILVKVDGEPAGKIFIYSQPLIGQMYPLHELKSMGVICEKAGDFLVNLVTERGLKLTFKPIGSTANCFVTALVSGNFTSLTHETHIKTPLQNQEATTSPTIESDLTDKPDTNVYTGSREGYVAPSEKGSNEKKKEVVPNGGDKSVENKKGSDRNVKKTPSKTVTKPLLSESRKRKEAKTLATTQSQDLPAPTKDEPERTNSEPDNGEQEKIKKEKKKGTETSLKDGKNKLNEKIVKPAPTTTPDAGNGGLTPGKEDNKKTVTTSSVEIEVPEKKKAVENAGIIKIS | not soluble
11 | MDAENRVIINVGGIRHETYKATLKKIPATRLSRLTEGMLNYDPVLNEYFFDRHPGVFAQIINYYRSGKLHYPTDVCGPLFEEELEFWGLDSNQVEPCCWMTYTAHRDTQETLAVL | soluble
12 | MTRDEMRYMLETEGVLENEELEMLQGVFSLDTKVAREVMVPRTDAFMVDIQDDVQENINLILGENYSRIPVYSEDKDKIVGILHTKTLLKAARNLGFENIELGAIIQEPLFVPETIFIDDLLYELKRTQNQMAILLDEYGGVVGLATLEDLLEEIVGEID | not soluble
13 | MNQVTTYLWETHLPGGSHWSGVVRRGTTLRLTDVSGGANAAVLFYNLEEKLERYNMADTLKTQHTFCLTKGHACHSDMGRIFCCITEDTAGWHDTVCGLSDAELIQQKYGTGRYQELRNDMYRNGLDGMLVELGKWGLGRRDVVSNINFFSKVTANSVGELQFHVSHSKAGDHVDLAFAMDTLVVLSAAPHPLDPAATYRPGAVNLAVFPSTPAVTGACAHIAENARGLENTRRLYAYGGVKLEHHHHHH | soluble
14 | MEEKFDVVIIGAGPAGLFAAYELVEKSNLKVLIIEEGGDVDQRVCPMYELGYCIGCKPCHIMSGVGGAGGLSDGTVNLRPDIGGDLTELTNDENYSWQLVWEVDQILLRHEAPRNLYKGDPEQIKYWERKAAQAGVKFIPIIQRHIGSDNTPKVIKSIKNYLEKKGVKFLLWTKALEFNKGWVKVRRGKDTFTINARYIIVAPGRGGADWFHEVAKKIGLKARHGPIDVGVRVEVPAIVMEPITSINHDPKFHIYTDTYDDFVRTFCTNPYGFVVEERYDNYVGVNGHSMREKKSNNTNFALLTRIELTEPVEDTTAYGKSIAQLATTIGGGKPIIQRLGDLRRGRRSTWSRIRKSDVEPTLKHVTPGDIAMALPHRVVTNIIEGLERLDKVIPGVASDHTLLYAPEIKYYAMRVEVNELLETNIENVFAAGDGAGLSRDIVNAAATGIMAARGILVKEGLYNLKDFKKPGNWKEKIENLEPEYLEHHHHHH | not soluble
15 | MGSDKIHHHHHHMIDVAIIGGGHNGLVTAAYLAKAGLKVAVFERREIVGGASVTEELWPSIKVSTGAYVLSLLRPKIIEELKLREFGLKVYLKDPGLFLPFENGKKLYIWSSLEKTKKEIEKFSKNDAKNYKKWVKFWDLFAEMADFFMLNPPPHIDEASNLINIFRGNVNEELALSFLRTFMQDAKSLLDEYFETDEVKSALAEDSVVGTFASPSTPGTAYVLAHHVIGEVNGVKGAWGYVEGGMGEVTQALKRSAEHLGVEIYTNAEVDEVLVKNGRVEGIKLKNGKTINAKIIVSNADPKTTFFKLLRNAELEEDFLRRVRALKNVGVSFKIVGYLEELPDFGNGKSLSPEHIASELIMPNMEYIEKAYDDARALGYSREPWLSINIQSSVDPTVAPPGKFSFSIFGQYLVYDSKRNDEMKEKIAEITFEKIKEFAPNFKPIKYEVLTPLDIERRFGINGGNIFHLDMTPDQLYFFRPLIGYSDYTTPIRGLYLCGSGTHPGGGVTGAPGYNAHVKILEDLRKGIYK | not soluble
16 | LSSVSSIPDYAEQLRTADLRVTRPRVAVLEAVNAHPHADTETIFGAVRFALPDVSRQAVYDVLHALTAAGLVRKIQPSGSVARYESRVGDNHHHIVCRSCGVIADVDCAVGEAPCLTASDHNGFLLDEAEVIYWGLCPDCSISDTSRSHP | soluble
17 | MSLGPTRANPKAVKPFIEQKEKKMVLVVDWHTKTLAATMNGRRPQDEDAMVVHGPLKNFPNARLKAIFDGHGGYSVSRRCASVAYGYLGAMKNLSQESFRSACLQMDADMRADTLKGGSTGLMVIIEKVDDPESRDGIYFNVHAANVGDSRGLILHSDGTYTIMSKDHKPTAEVERERIKRAGGFLLRRLGVWRVDGRLALSRAFGDFALKDRLDMKPNEQKVVALPDVNVFKAKPGDIILMGCDELANTLKNIQWDGGTVCSRRPRGRRSRDNVSIMLTKLVKRPIRNTQVKRFDYSFTGERYVLPSEEGHHHHHH | not soluble
18 | MLTVKQIEAAKPKEKPYRLLDGNGLYLYVPVSGKKVWQLRYKIDGKEKILTVGKYPLMTLQEARDKAWTARKDISVGIDPVKAKKASSNNNSFSAIYKEWYEHKKQVWSVGYATELAKMFDDDILPIIGGLEIQDIEPMQLLEVIRRFEDRGAMERANKARRRCGEVFRYAIVTGRAKYNPAPDLADAMKGYRKKNFPFLPADQIPAFNKALATFSGSIVSLIATKVLRYTALRTKELRSMLWKNVDFENRIITIDASVMKGRKIHVVPMSDQVVELLTTLSSITKPVSEFVFAGRNDKKKPICENAVLLVIKQIGYEGLESGHGFRHEFSTIMNEHEWPADAIEVQLAHANGGSVRGIYNHAQYLDKRREMMQWWADWLDEKVE | soluble
19 | MLTLTAGKKAAMDRLSTQEGIISALAIDQRGALKKMIKALDVEPTDAQIETFKELVSKELTPYASAILLDPEYGLPAAKARDTEAGLLLAYEKTGYDATTPGRLPDLLADWSVLRLKEEGADAIKFLLYYDVDEDPEINHQKHVFIERLGSECAEEDLPFYLELVSYDAQIADATSLEYAKVKPHKVNEMMKEFSKPQYKVDVLKVEVPVNMNFVEGFAPAETAYTKEEAANYFLEQSQATDLPFIFLSAGVSTELFQETLRFAKEAGSTFNGVLCGRATWKNGVKPFVEAGETAACDWLKTEGRENIESLNEVIAATASSWHAKVQVNEG | not soluble
20 | ALNQMNNLMTQEATGLKILCAPDKDSSFVIYEDDGETMDYANGGYLKTVLDIKAGEQTVLSFRNEGEYETAVEDIYLDVIHREKAPYWVKADGHELPHFLHRKKFEAAQEGWYYSQSLKSVQIKYKNPKKDYEVIVSFEQFDMIGM | not soluble
21 | MGSDKIHHHHHHVQVVSISSLKGGVGKTSVTTGLASAALAAGIPTLVVDLDPHADASTALGVQPDEQLDIGRMLKSPRRARLSQNVVTSGWVARENYNGARPAVLDVAVGSAYTGIYDRPDLGRRDLRRLSAVLAGTDKYQLILVDCPPSLNGLTRMAWSASDKVALVAEPGLFSVAGTERTMRAIQLFRQEFAPNLSPAGIIANRVRSGSSEHAFRLAEMQSMFGELLLTPYIPEQANWQQIQGAAHSVHHWPGDSAKNAASLFNTLLDNLMASNDAGSAGALRERSLR | not soluble
